Measurements reported in publication PMC6555819, “Comprehensive study of nuclear receptor DNA binding provides a revised framework for understanding receptor specificity”.
Changes are numbered by the printed parent chain.

B1: NRC3_wobSeed124_DR5_T23A_o1 (dsDNA)
DNA 1: GCCCTACTGGGCCATTCAGAGGACATTGATCATATGGCGATTGACAGCGTAGAATGAAGG
DNA 2: CCTTCATTCTACGCTGTCAATCGCCATATGATCAATGTCCTCTGAATGGCCCAGTAGGGC
B2: NRC3_wobSeed10_DR0_A7G_o1 (dsDNA)
DNA 1: GCATCGGAAGGTCGAGGTGAGTATAGAGAAAGGGAAGCGATTGACAGCGTAGAATGAAGG
DNA 2: CCTTCATTCTACGCTGTCAATCGCTTCCCTTTCTCTATACTCACCTCGACCTTCCGATGC
B3: NRC3_wobSeed86_DR3_A23G_o1 (dsDNA)
DNA 1: GCGCTGCTAGGTCAGGTTGGTCGGCTAACGGGTACGGCGATTGACAGCGTAGAATGAAGG
DNA 2: CCTTCATTCTACGCTGTCAATCGCCGTACCCGTTAGCCGACCAACCTGACCTAGCAGCGC
B4: NRC3_wobSeed89_DR3_T13A_o1 (dsDNA)
DNA 1: GCCTATGTAGGTAAAGGGGGTCATTCAGTTTGAAAGGCGATTGACAGCGTAGAATGAAGG
DNA 2: CCTTCATTCTACGCTGTCAATCGCCTTTCAAACTGAATGACCCCCTTTACCTACATAGGC
B5: NRC3_wobSeed114_DR4_T12A_o1 (dsDNA)
DNA 1: GCAATACAGGGACATCGTAGGCCAGAGTACGCACAGGCGATTGACAGCGTAGAATGAAGG
DNA 2: CCTTCATTCTACGCTGTCAATCGCCTGTGCGTACTCTGGCCTACGATGTCCCTGTATTGC
B6: NRC3_wobSeed111_DR4_G21T_o1 (dsDNA)
DNA 1: GCCGAACTAGGTCAGAACAGTACAGTGAAGGATGATGCGATTGACAGCGTAGAATGAAGG
DNA 2: CCTTCATTCTACGCTGTCAATCGCATCATCCTTCACTGTACTGTTCTGACCTAGTTCGGC
B7: NRC3_wobSeed106_DR4_G25C_o1 (dsDNA)
DNA 1: GCCTCGAAAGGTCGGTTGAGGTGACTATACGGATAAGCGATTGACAGCGTAGAATGAAGG
DNA 2: CCTTCATTCTACGCTGTCAATCGCTTATCCGTATAGTCACCTCAACCGACCTTTCGAGGC
B8: NRC3_wobSeed69_DR2_A7C_o1 (dsDNA)
DNA 1: GCAGTCCAAGTTCACTAGGTAACGTAAGATTCAGCTGCGATTGACAGCGTAGAATGAAGG
DNA 2: CCTTCATTCTACGCTGTCAATCGCAGCTGAATCTTACGTTACCTAGTGAACTTGGACTGC
B9: NRC3_wobSeed69_DR2_A8T_o1 (dsDNA)
DNA 1: B8 DNA 1 with C7A, A8T
DNA 2: B8 DNA 2 with T53A, G54T
B10: NRC3_wobSeed46_DR1_T26A_o1 (dsDNA)
DNA 1: GCTTACCAAGGTGAAAGGTCGTTGAAGCACGCCTTGGCGATTGACAGCGTAGAATGAAGG
DNA 2: CCTTCATTCTACGCTGTCAATCGCCAAGGCGTGCTTCAACGACCTTTCACCTTGGTAAGC
B11: NRC3_wobSeed46_DR1_T26G_o1 (dsDNA)
DNA 1: B10 DNA 1 with A26G
DNA 2: B10 DNA 2 with T35C
B12: NRC3_wobSeed65_DR2_A5T_o1 (dsDNA)
DNA 1: GCATTTGTAGGTTATCGGGTCATTCAGTTTGCGCATGCGATTGACAGCGTAGAATGAAGG
DNA 2: CCTTCATTCTACGCTGTCAATCGCATGCGCAAACTGAATGACCCGATAACCTACAAATGC
B13: NRC3_wobSeed98_DR4_G11C_o1 (dsDNA)
DNA 1: GCACTAGTTGCTCAGCTGAGGTCACACACAATTCGGGCGATTGACAGCGTAGAATGAAGG
DNA 2: CCTTCATTCTACGCTGTCAATCGCCCGAATTGTGTGTGACCTCAGCTGAGCAACTAGTGC

Each binder was assayed against RARb:RXRa (Homo sapiens, UniProt P10826;P19793 full;full) (assay: no ligand; PBM; 270 nM : 90 nM RXRa; PBS pH 7.4, 2% milk, 0.02% Triton X-100, 1 mM DTT, BSA, 0.4 mg/ml salmon testes DNA). Details: tags: His kept;His cleaved; copies: 1;1; label: surface-attached array probe.
Sequence of RARb:RXRa (P10826 whole entry, chain 1 of 2): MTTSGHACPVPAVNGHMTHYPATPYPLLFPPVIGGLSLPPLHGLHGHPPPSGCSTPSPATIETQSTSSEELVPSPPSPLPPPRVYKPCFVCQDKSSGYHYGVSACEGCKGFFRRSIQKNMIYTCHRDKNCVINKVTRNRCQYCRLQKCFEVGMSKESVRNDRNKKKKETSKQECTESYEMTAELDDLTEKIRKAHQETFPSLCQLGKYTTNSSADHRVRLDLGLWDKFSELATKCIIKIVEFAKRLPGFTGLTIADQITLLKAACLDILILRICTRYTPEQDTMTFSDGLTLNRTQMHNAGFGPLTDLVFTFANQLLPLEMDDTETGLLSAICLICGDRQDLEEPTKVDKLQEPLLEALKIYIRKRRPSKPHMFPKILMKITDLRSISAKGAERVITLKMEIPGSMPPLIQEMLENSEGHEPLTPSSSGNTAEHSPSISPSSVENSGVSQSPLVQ
Sequence of RARb:RXRa (P19793 whole entry, chain 2 of 2): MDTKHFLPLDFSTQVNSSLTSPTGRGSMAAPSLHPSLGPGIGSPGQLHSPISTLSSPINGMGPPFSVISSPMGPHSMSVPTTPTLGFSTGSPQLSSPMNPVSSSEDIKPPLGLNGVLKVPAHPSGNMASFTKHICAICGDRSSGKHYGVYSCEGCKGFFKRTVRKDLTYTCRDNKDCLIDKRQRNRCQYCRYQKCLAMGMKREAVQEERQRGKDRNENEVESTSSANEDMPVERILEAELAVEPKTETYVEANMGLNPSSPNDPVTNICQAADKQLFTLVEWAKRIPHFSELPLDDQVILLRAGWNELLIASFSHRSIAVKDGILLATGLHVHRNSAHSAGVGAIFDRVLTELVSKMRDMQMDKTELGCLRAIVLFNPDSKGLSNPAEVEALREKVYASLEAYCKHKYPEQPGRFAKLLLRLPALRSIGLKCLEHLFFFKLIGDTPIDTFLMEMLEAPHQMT
Outline: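 Custom Agilent 4×180K protein-binding microarrays carried double-stranded probes. Their 34-nt variable regions held direct-repeat seeds, single-nucleotide variants, half-site ablations and random human genomic background sequences. Arrays were incubated 1 h with ligand-free nuclear receptor dimers in PBS pH 7.4, 2% milk, 0.02% Triton X-100, 1 mM DTT, 0.2 mg/mL BSA and 0.4 mg/ml salmon testes DNA. Antibodies against each partner (one per run) detected binding, and scanned fluorescence was regression-normalized. Binding z-scores use random background probes as reference.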

Question: How did the binding signal turn out when B1 was run?
Answer: 0.46 PBM z-score against 500 random probes

Question: With B2 as the binder, how does the binding signal read?
Answer: 3 PBM z-score against 500 random probes

Question: Which binding signal does the source give for B3 here?
Answer: 3.01 PBM z-score against 500 random probes

Question: How did the binding signal turn out when B4 was run?
Answer: 3.02 PBM z-score against 500 random probes

Question: With B5 as the binder, how does the binding signal read?
Answer: 0.47 PBM z-score against 500 random probes

Question: With B6 as the binder, how does the binding signal read?
Answer: 3.01 PBM z-score against 500 random probes

Question: Which binding signal does the source give for B7 here?
Answer: 3.02 PBM z-score against 500 random probes

Question: Which binding signal does the source give for B8 here?
Answer: 3.03 PBM z-score against 500 random probes

Question: How did the binding signal turn out when B9 was run?
Answer: 3.02 PBM z-score against 500 random probes

Question: B10 was tested. Which binding signal did it give?
Answer: 3.02 PBM z-score against 500 random probes

Question: How did the binding signal turn out when B11 was run?
Answer: 3.01 PBM z-score against 500 random probes

Question: For B12, which binding signal is on record?
Answer: 3 PBM z-score against 500 random probes

Question: With B13 as the binder, how does the binding signal read?
Answer: 3.01 PBM z-score against 500 random probes
